# Measured values taken from article PMC7616283.
# B1: unlabeled human recombinant CCL18, P55774 21-89 (ligand)
# chain: AQVGTNKELCCLVYTSWQIPQKFIVDYSETSPQCPKPGVILLTKRGRQICADPNKKWVQKYISDLKLNA
# Molecular target: human CCR8 (HA-tagged) on stably transfected HEK293 cells (human), P51685
# Test: flow cytometry on cells
# Conditions: remark: other sources report otherwise
# Chain of human CCR8 (HA-tagged) on stably transfected HEK293 cells (human), P51685 (P51685 whole entry): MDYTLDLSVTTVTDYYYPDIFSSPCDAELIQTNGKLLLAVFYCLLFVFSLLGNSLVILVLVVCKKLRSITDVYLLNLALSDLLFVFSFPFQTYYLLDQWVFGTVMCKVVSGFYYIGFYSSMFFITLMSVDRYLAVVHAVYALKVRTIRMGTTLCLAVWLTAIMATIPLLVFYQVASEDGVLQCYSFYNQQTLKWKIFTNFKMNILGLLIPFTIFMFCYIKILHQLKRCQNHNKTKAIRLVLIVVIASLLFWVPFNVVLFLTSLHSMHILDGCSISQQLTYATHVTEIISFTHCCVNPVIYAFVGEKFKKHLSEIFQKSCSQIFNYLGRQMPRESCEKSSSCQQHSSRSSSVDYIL
binder,measurement,value
B1,IC50,4.1 nM
